Target: the molecule itself
Test: crystal structure; HsFN3KΔ crystals, hanging drop vapor diffusion at 20 °C (0.5 M ammonium sulfate, 0.1 M tri-sodium citrate, 1 M lithium sulfate); space group P212121, two molecules in the asymmetric unit; apo and soaked with nucleotides and DMF

B1: HsFN3KΔ (human fructosamine-3-kinase with an internal loop truncation: amino acid 117–138 replaced with a GSS linker) (enzyme)
chain: MEQLLRAELRTATLRAFGGPGAGCISEGRAYDTDAGPVFVKVNRRTQARQMFEGEVASLEALRSTGLVRVPRPMKVIDLPGGGAAFVMEHLKMKSLSSQASKLGEQMADLHLYNQKGSSYVDKFGFHTVTCCGFIPQVNEWQDDWPTFFARHRLQAQLDLIEKDYADREARELWSRLQVKIPDLFCGLEIVPALLHGDLWSGNVAEDDVGPIIYDPASFYGHSEFELAIALMFGGFPRSFFTAYHRKIPKAPGFDQRLLLYQLFNYLNHWNHFGREYRSPSLGTMRRLLK
notes: human fructosamine-3-kinase (FN3K), Gene ID 64122, residues before the truncated loop (up to residue 116); linker that replaces amino acids 117–138; human fructosamine-3-kinase (FN3K), Gene ID 64122, residues after the truncated loop (from residue 139); Construct used for all crystal structures; also called apo-HsFN3K; apo-HsFN3KΔ; source: E. coli Rosetta 2 (DE3), purified (Ni-NTA, SP-HP cation …)
stoichiometry N: 2
